# Values joined by “and” are separate entries in the source; they are usually repeats but may differ in a detail not shown here. Equal values may be shown once. Read-outs that look alike come from different tables or passages of the source.
# How the values were obtained:
# Assay in all cases: radioligand binding
# [1] = biological target: receptor for IgE on rat basophilic leukemia cells (RBL-1 cells) (rat (endogenous in RBL-1)) (UniProt P12371)
# [2] = biological target: receptor for IgE on rat basophilic leukemia cells (RBL-1 cells) (rat (endogenous in RBL-1)) (UniProt P12371); remark: listed apart in the source
# [3] = biological target: receptor for IgE on rat basophilic leukemia cells (RBL-1 cells) (rat (endogenous in RBL-1)) (UniProt P12371); remark: listed apart in the source
# UniProt P12371, sequence (P12371 24-245, chain 1 of 3): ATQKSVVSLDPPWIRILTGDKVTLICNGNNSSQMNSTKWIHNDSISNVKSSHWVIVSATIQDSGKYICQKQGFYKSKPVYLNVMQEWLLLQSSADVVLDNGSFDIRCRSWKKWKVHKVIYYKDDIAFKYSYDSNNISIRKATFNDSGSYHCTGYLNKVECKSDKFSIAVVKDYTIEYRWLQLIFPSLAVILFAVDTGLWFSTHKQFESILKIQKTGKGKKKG
# UniProt P12371, sequence (P13386 whole entry, chain 2 of 3, further chain): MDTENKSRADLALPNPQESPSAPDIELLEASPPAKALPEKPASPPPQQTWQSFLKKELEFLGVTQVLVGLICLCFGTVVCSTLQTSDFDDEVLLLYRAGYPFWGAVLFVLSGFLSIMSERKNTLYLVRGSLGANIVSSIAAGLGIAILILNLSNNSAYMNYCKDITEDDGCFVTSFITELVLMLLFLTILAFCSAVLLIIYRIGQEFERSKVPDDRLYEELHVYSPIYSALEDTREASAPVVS
# UniProt P12371, sequence (P20411 19-86, chain 3 of 3, further chain): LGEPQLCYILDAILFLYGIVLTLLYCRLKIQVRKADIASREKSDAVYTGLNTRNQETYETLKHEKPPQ
substance,measurement,setting,value
"[125I]IgE (IR 162), 125I-labeled rat IgE myeloma protein (antibody)",Ka,[1],> 6e+09 M⁻¹ and 6e+09 M⁻¹
same,half-life of dissociation,[1],12 h
same,koff,[1],1.6e-05 s⁻¹ and 1.4e-05 s⁻¹
same,percent of the labeled protein bound (active fraction),[1],70 to 80%
same,"relative binding at 15 min (% of no additive), Ca++ 2 mM",[1],92%
same,"relative binding at 15 min (% of no additive), Ca++ 4 mM",[1],88%
same,"relative binding at 15 min (% of no additive), Ca++ 8 mM",[1],80%
same,"relative binding at 15 min (% of no additive), Ca++ and Mg++ 2, 2 mM",[1],86%
same,"relative binding at 15 min (% of no additive), EDTA 4 mM",[1],98%
same,"relative binding at 15 min (% of no additive), EDTA (4 mM) plus Ca++ 2 mM",[1],78%
same,"relative binding at 15 min (% of no additive), EDTA (4 mM) plus Ca++ 4 mM",[1],43%
same,"relative binding at 15 min (% of no additive), EDTA (4 mM) plus Mg++ 2 mM",[1],85%
same,"relative binding at 15 min (% of no additive), EDTA (4 mM) plus Mg++ 8 mM",[1],44%
same,"relative binding at 15 min (% of no additive), Mg++ 2 mM",[1],93%
same,"relative binding at 15 min (% of no additive), Mg++ 4 mM",[1],89%
same,"relative binding at 15 min (% of no additive), Mg++ 8 mM",[1],82%
same,"relative binding at 20 min (% of no additive), Al2(SO4)3 0.7 x 10^-7 M",[1],110%
same,"relative binding at 20 min (% of no additive), Al2(SO4)3 7.0 x 10^-7 M",[1],108%
same,"relative binding at 20 min (% of no additive), Al2(SO4)3 70 x 10^-7 M",[1],105%
same,"relative binding at 20 min (% of no additive), heparin 3.3 ug/ml",[1],101%
same,"relative binding at 20 min (% of no additive), heparin 10 ug/ml",[1],110%
same,"relative binding at 20 min (% of no additive), heparin 30 ug/ml",[1],102%
same,"relative binding at 20 min (% of no additive), human serum albumin 0.3 mg/ml",[1],93%
same,"relative binding at 20 min (% of no additive), phosphatidyl serine 12.5 ug/ml",[1],105%
same,"relative binding at 20 min (% of no additive), phosphatidyl serine 50 ug/ml",[1],116%
same,"relative binding at 20 min (% of no additive), phosphatidyl serine 200 ug/ml",[1],135%
same,"relative binding at 60 min (% of no additive), Al2(SO4)3 0.7 x 10^-7 M",[1],101%
same,"relative binding at 60 min (% of no additive), Al2(SO4)3 7.0 x 10^-7 M",[1],97%
same,"relative binding at 60 min (% of no additive), Al2(SO4)3 70 x 10^-7 M",[1],96%
same,"relative binding at 60 min (% of no additive), heparin 3.3 ug/ml",[1],99%
same,"relative binding at 60 min (% of no additive), heparin 10 ug/ml",[1],97%
same,"relative binding at 60 min (% of no additive), heparin 30 ug/ml",[1],101%
same,"relative binding at 60 min (% of no additive), human serum albumin 0.3 mg/ml",[1],99%
same,"relative binding at 60 min (% of no additive), phosphatidyl serine 12.5 ug/ml",[1],112%
same,"relative binding at 60 min (% of no additive), phosphatidyl serine 50 ug/ml",[1],114%
same,"relative binding at 60 min (% of no additive), phosphatidyl serine 200 ug/ml",[1],121%
same,"relative binding at 61 min (% of no additive), Ca++ 2 mM",[1],95%
same,"relative binding at 61 min (% of no additive), Ca++ 4 mM",[1],91%
same,"relative binding at 61 min (% of no additive), Ca++ 8 mM",[1],85%
same,"relative binding at 61 min (% of no additive), Ca++ and Mg++ 2, 2 mM",[1],70%
same,"relative binding at 61 min (% of no additive), EDTA 4 mM",[1],96%
same,"relative binding at 61 min (% of no additive), EDTA (4 mM) plus Ca++ 2 mM",[1],88%
same,"relative binding at 61 min (% of no additive), EDTA (4 mM) plus Ca++ 4 mM",[1],46%
same,"relative binding at 61 min (% of no additive), EDTA (4 mM) plus Mg++ 2 mM",[1],97%
same,"relative binding at 61 min (% of no additive), EDTA (4 mM) plus Mg++ 8 mM",[1],53%
same,"relative binding at 61 min (% of no additive), Mg++ 2 mM",[1],70%
same,"relative binding at 61 min (% of no additive), Mg++ 4 mM",[1],64%
same,"relative binding at 61 min (% of no additive), Mg++ 8 mM",[1],62%
same,Ka,[2],1.2e+09 M⁻¹
same,koff,[2],1.7e-05 s⁻¹
same,kon,[2],21000 M⁻¹ s⁻¹
same,Ka,[3],1.2e+10 M⁻¹
same,koff,[3],4.7e-06 s⁻¹
same,kon,[3],57000 M⁻¹ s⁻¹

# Reference: PMC2139755
